{
  "source": "patent US5977056",
  "key": {"[1]": {"biological_target": "fibrinogen (species not stated)"}, "[2]": {"biological_target": "fibrinogen (species not stated)", "remark": "listed apart in the source"}, "[3]": {"biological_target": "fibrinogen (species not stated)", "remark": "listed apart in the source"}, "[4]": {"biological_target": "human fibrinogen (in citrated whole blood, plasma or platelet-rich plasma) (human) (UniProt P02671)"}},
  "data": [
    {"substance": "anterior gland hementin (Haementeria ghilianii) (enzyme)", "values": [
      {"measurement": "Specific Activity (Units/mg), Stage III material", "setting": "[1]", "value": 1400, "unit": "Units/mg"}
    ]},
    {"substance": "posterior gland hementin (Haementeria ghilianii) (enzyme)", "values": [
      {"measurement": "Specific Activity (Units/mg), Stage II material", "setting": "[2]", "value": 11500, "unit": "Units/mg"}
    ]},
    {"substance": "purified hementin (gland of origin not stated for the experiment) (enzyme)", "values": [
      {"measurement": "fibrinogenolysis assay: fibrinogen breakdown products on HPLC (RP300-C8)", "setting": "[3]", "value": 90, "unit": "%"},
      {"measurement": "deaggregation of pre-formed ADP-induced platelet aggregates (aggregometer)", "setting": "[4]", "value": 3, "unit": "min"},
      {"measurement": "loss of coagulability of platelet-rich plasma with thrombin", "setting": "[4]", "value": 10, "unit": "min"}
    ]}
  ]
}
